Where two headings read alike, the source gives them in different places.
Key:
[1] = Aggregation / stability of on-column refolded protein on storage, stirring and freeze-thaw (visual analysis, SDS-PAGE, Western blot); type: physicochemical; settings: for aggregation of on-column refolded protein on storage: stored at 4° C. one month, SDS-PAGE (TSA-1-C4: in PBS, also visual analysis, Western blot)
Method: FIG. 4A-C. On-column refolding of TSA-1-NT. A, chromatographic profile of TSA-1-NT refolded by Size Exclusion Chromatography; B, samples were collected and analyzed by SDS-PAGE under non-reducing condition aggregates (a), and refolded protein (b and c); C, refolded TSA1-NT (b) after one month at 4° C. under reducing (lanes 1,3) and non-reducing conditions (lane 2).
FIGS. 10A, B and C. SDS-PAGE analysis of refolded TSA-1 C4 by Size-Exclusion Chromatography. A, the collected fractions of the main peak of seven consecutive refolding batches of denatured TSA-1 C4 (in 1.6×100 XK column packed with 185 ml of Sepharose 6FF) were analyzed by 10% SDS-PAGE under non-reducing conditions; batch1 (Lanes 2 and 3), batch 2 (Lanes 4 and 5), batch 3 (Lanes 6 and 7), batch 4 (Lanes 8 and 9), batch 5 (Lanes 10 and 11), batch 6 (Lanes 12 and 13), batch 7 (Lanes 14 and 15). B, Refolded TSA-1-C4 was stored at 4° C. in refolding buffer (lanes 1,4), Tris-HCl (lanes 2 and 5) and PBS (lanes 3 and 6) buffers. Samples were analyzed by SDS-PAGE under non-reduced conditions before (lanes 1, 2 and 3) and after one month (lanes 4, 5 and 6) of storage at 4° C. C, the stability of refolded TSA-1-C4 was tested by orbital stirring at 25 rpm and 20° C. for 24 (lane 2), 48 (lane 3) and 120 h (lane 4), and by cycles of freezing (−80° C.)-thawing at 24 h (lane 5), 48 (lane6) and (lane 7). Molecular Weight marker (lane 1).
(§1) In order to develop as a recombinant protein vaccine that can be used in humans in endemic areas, the coding DNA for TSA-1-NT was identified and codon optimized for expression in E. coli. The synthesized DNA was cloned into pET41a, a bacterial expression vector with an IPTG inducible T7 promoter. The recombinant TSA-1-NT/pET41a plasmid DNA was transformed into E. coli BL21(DE3). […] The on-column refolded TSA-1-NT was soluble but aggregated when stored at 4° C. one month (FIG. 4C). Aggregation causes problems with reproducibility and consistency, and would prevent the protein from being developed into a vaccine formulation. We hypothesized that the reason for the aggregation was the interaction of four cysteine residues in the sequence of the molecule (C248, C267, C360, C447) that could lead to intermolecular disulfide bridges.
However, and more importantly, and unlike TSA-1 NT, after purification on a nickel column or ion-exchange chromatography (FIGS. 8A and B) and refolding on a size-exclusion column (FIGS. 9A and B). The refolded TSA-1-C4 was concentrated by ultrafiltration, analyzed by SDS-PAGE (FIG. 10A) and it was stable.

[2] = test system: T. cruzi; settings: mice; cited from earlier work
[3] = Solubility of recombinant protein expressed in E. coli BL21(DE3) (SDS-PAGE of soluble fraction and inclusion bodies; 8M urea); type: physicochemical; settings: for solubility of protein as expressed in E. coli: E. coli BL21(DE3), induced with 0.5 mM IPTG
Method: FIGS. 3A and B. SDS-PAGE of expressed wild-type TSA-1-NT in E. coli BL21(DE3) induced with 0.5 mM IPTG from 0-16 hours.
FIGS. 6A and B. SDS-PAGE of expressed TSA-1-C4 in E. coli BL21(DE3) induced with 0.5 mM IPTG over 16 hours.
as §1
The coding DNA for TSA-1-C4 (SEQ ID NO: 5) was codon optimized for expression in E. coli, synthesized by GenScript, and cloned into pET41a with an octahistidine-tag (SEQ ID NO: 11, HHHHHHHH, shaded in FIG. 5A) or without an octahistidine-tag (SEQ ID NO: 3, FIG. 2 and FIG. 5B) expressed at its C-terminus. The recombinant plasmid DNAs were transformed into E. coli BL21(DE3) and selected on LB agar plates containing 30 μg/mL of kanamycin. The correct sequences and reading frames were confirmed by double-strand DNA sequencing with vector flanking primers.

[4] = test system: H1 Trypanosoma cruzi; experiment: Therapeutic vaccine efficacy: parasitemia in H1 Trypanosoma cruzi-infected mice; type: in vivo; settings: 20 μg antigen IM, acute infection, compared to untreated controls
Method: FIGS. 11A and B. Therapeutic effect of TSA-1-C4 alone or with Tc24-C4 and in a combination with or without benznidazole (BZN) treatment. H1 Trypanosoma cruzi-infected mice were treated with Tc24-C4 and TSA-1-C4, […] and given orally 25 mg/kg BZN per day for 20 days. A, Kinetic parasitemia was recorded each 3 days during the acute infection. Standard bars represent the error of the mean. B, Area under the curve (AUC) was graphed using the simple method of Gagnon. Histograms represent the mean and standard bars the error of the mean.
Briefly, H1 Trypanosoma cruzi-infected mice were treated with Tc24-C4 and TSA-1-C4, 20 μg each and given orally 25 mg/kg BZN per day for 20 days. Kinetic parasitemia was recorded each 3 days during the acute infection (FIG. 11A), and the area under the curve (AUC) was graphed (FIG. 11B).

[5] = cited from earlier work
[6] = test system: T. cruzi; settings: formulated with E6020-SE; versus Tc24+E6020-SE; cited from earlier work

Molecule | aggregation of on-column refolded protein on storage [1] | aggregation when compounded into vaccine compositions ([1]; vaccine compositions) | protective immunity [2] | solubility in 8M urea [3] | solubility of protein as expressed in E. coli [3] | aggregation under stirring ([1]; after 120 h under orbital stirring, 25 rpm, 20° C.) | aggregation after cycles of freezing-thawing ([1]; freezing (−80° C.)-thawing at 24, 48 and 120 h) | levels of parasites in the blood (parasitemia, AUC) [4] | solubility of protein as expressed in E. coli ([5]; E. coli (BL21)) | aggregation on storage ([5]; purified protein stored at 4° C. for 9 days, Western blot, light-scattering, HPLC-RP) | protection (mouse survival rate and parasitemia levels in blood) [6]
TSA-1-NT: N-terminal fragment of TSA-1 (aa 30-617), wild-type cysteines [reference compound] | aggregated | aggregates | induces protective immunity | soluble in 8M urea | expressed as insoluble protein in inclusion body |  |  |  |  |  | 
TSA-1-C4: Recombinant T. cruzi TSA-1 fragment, four cysteines mutated to serine (C248S, C267S, C360S, C447S), plus 43 C-terminal amino acids (protein, synthetic recombinant protein based on TSA1 from T. cruzi, Recombinant T. cruzi TSA-1 fragment, four cysteines mutated to serine (C248S, C267S, C360S, C447S), plus 43 C-terminal amino acids) MERNSGDLQLPQEIAMLVPNKTQVVPKSGGEGKVKDIFASPALVRAGGVMIAFVEGRTKNKLFPEVIDLSSSDIVAGYIKAPETWQSLVAEVTKEYWQAHTVLESANNSNHRVGVARLPTGITRGNKVFLLVGSYEERREIDDYIWKAEAWNIKVIEGEATQSTEVQPTQPINWSEPKPLFQTDSPNNKGDLKEFLGGGGSGIVMGNGTLVFPLTAKDESNKVFSLITYSTDDGQKWEIPGGVSSVASRSPRVTEWEEGTLLMVTYSEDGRKVFESRDMGKTWTEAFGTLPGVWLKSGPELPEVSLRVDALITATIEGRKVMLYTQKVRHFLEVDEPNALHLWVTDNNRTFHLGPFSVDSAENKTFANTLLYSDDALHLLQAKGDHESTAVSLARLTEELNTINSVLSTWVQLDASFSESSIPTAGLVGFLSNTTSSGDTWIDGYRSMNATVTKAAKVENGFKFTGPGSRATWPVNSRWDIKQYGFVDYNFTIVAMATIHQVPSESTPLLGASLRGNKRTKLIGLSYGAGGKWETVYDGTKTVQGGTWEPGREYQVALMLQDGNKGFVYVDGVLVGNPAMLPTPEERWTEFSHFYFGGDEGDSGSDATLTDVFLYNRPLSVGELKMIKEVED | No aggregation observed |  |  | soluble in 8M urea | expressed as insoluble protein in inclusion bodies | No aggregation observed | No aggregation observed | significantly lower levels of parasites in the blood |  |  | 
Tc24-C4: Recombinant T. cruzi Tc24 with 4 cysteine residues mutated to serine residues (protein, synthetic recombinant protein based on TSA1 from T. cruzi, Recombinant T. cruzi Tc24 with 4 cysteine residues mutated to serine residues) MGASGSKGSTSDKGLASDKDGKNAKDRKEAWERIRQAIPREKTAEAKQRRIELFKKFDKNETGKLSYDEVHSGSLEVLKLDEFTPRVRDITKRAFDKARALGSKLENKGSEDFVEFLEFRLMLSYIYDFFELTVMFDEIDASGNMLVDEEELKRAVPKLEAWGAKVEDPAALFKELDKNGTGSVTFDEFAAWASAVKLDADGDPDNVPESA |  |  |  |  |  |  |  |  | soluble protein | did not form any aggregation | similarly protected

Source: patent publication US20240108707A1, “CHAGAS DISEASE VACCINE ANTIGENS WITH IMPROVED STABILITY AND DECREASED AGGREGATION” (Baylor College of Medicine, priority 2019, published 2024)
